From US20220144916A1 (University of Texas, published 2022)
Numbering of substitutions follows the chain as printed. In names and notes the source's numbering stands.

B1: 3S-13 (other)
human IgG1 Fc displayed on yeast as an Aga-2 fusion protein: CDKTHTCPPCPAPELLGGPSVFLFPPKPKDTLMISRTPEVTCVVVDVSHEDPEVKFNWYVDGVEVHNAKTKPREEQYNSTYRVVSVLTVLHQDWLNGKEYKCKVSNKALPAPIEETISIAKGQPREPQVYTLPP
notes: member of group m65; also called gp34 escape variant 3S-13 of human IgG1 Fc, K334E, K338I
B2: 3S-12 (other)
human IgG1 Fc displayed on yeast as an Aga-2 fusion protein: CDKTHTCPPCPAPELLGGPSVFLFPPKPKDTLMISRTPEVTCVVVDVSHEDPEVKFNWYVDGVEVHNAKTKPREEQYNSTYRVVSVLTVLHQDWLNGKEYKCKVSNKALPAPIEKTIFKAKGQPRKPQVYILPPSRDELTKNQVSLTCLVKGFYPSDIAVEWESNGQPENNYKTTPPVLDSDGSFFLYSKLTVDKSRWQQGNVFSCSVMHEALHNHYTQKSLSLSPGK
notes: member of group m65; also called gp34 escape variant 3S-12 of human IgG1 Fc, S337F, E345K, T350I
B3: 4-7 (other)
human IgG1 Fc displayed on yeast as an Aga-2 fusion protein: B2 human IgG1 Fc displayed on yeast as an Aga-2 fusion protein with H49L, E75K, Q92L, K115E, F118S, K126E, I131T
notes: also called gp34 escape variant 4-7 of human IgG1 Fc, H268L, E294K, Q311L, K334E

Assays:
[1] = molecular target: T1, HCMV viral Fcγ receptor gp34 (residues 24-182), soluble, strep and FLAG tags (human cytomegalovirus AD169, UniProt P16809 24-182); experiment: flow cytometry, yeast display of human IgG1 Fc, Gp34 plus anti-FLAG PE
T1 construct: range 24-182
T1 sequence: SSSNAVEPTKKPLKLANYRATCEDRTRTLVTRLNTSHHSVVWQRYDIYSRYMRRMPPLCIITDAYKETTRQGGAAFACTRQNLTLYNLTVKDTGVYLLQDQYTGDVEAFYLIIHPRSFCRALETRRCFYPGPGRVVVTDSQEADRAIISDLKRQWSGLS

[2] = molecular target: T2, human FcγRIIIA, FLAG-tagged (human, UniProt P08637 17-208); experiment: flow cytometry, yeast display of human IgG1 Fc, FcgR3A labeled with PE
T2 construct: also called FcgRIIIa; FcγIIIA

human FcRn, FLAG-tagged = human FcRn, FLAG-tagged (human, UniProt P55899 24-297; P61769 21-119); experiment: flow cytometry, yeast display of human IgG1 Fc, FcRn at low pH, PE detection
human FcRn, FLAG-tagged, sequence (P55899 24-297 limits assumed, chain 1 of 2): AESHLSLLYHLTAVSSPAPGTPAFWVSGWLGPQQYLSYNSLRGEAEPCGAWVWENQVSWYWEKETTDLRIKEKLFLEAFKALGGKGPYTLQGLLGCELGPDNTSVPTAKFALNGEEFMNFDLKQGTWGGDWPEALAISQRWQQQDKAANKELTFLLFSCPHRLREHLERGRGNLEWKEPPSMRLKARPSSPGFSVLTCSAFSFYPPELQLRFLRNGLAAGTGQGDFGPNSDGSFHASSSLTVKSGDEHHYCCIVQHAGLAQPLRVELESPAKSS
human FcRn, FLAG-tagged, sequence (P61769 21-119 limits assumed, chain 2 of 2): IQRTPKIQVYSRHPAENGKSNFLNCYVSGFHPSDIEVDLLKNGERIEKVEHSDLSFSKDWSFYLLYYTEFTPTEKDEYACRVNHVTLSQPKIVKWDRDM

T2 sequence (P08637 17-208 limits assumed): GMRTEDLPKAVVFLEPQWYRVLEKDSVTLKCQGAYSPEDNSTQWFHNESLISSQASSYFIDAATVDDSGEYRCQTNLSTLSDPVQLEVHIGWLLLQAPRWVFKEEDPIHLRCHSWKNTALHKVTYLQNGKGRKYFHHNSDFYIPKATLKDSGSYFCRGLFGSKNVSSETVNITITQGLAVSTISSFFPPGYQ

Binder | binding result [1] | number printed in the receptor-PE gate (share of yeast cells; unit not given) [2] | number printed in the receptor-PE gate (share of yeast cells; unit not given) (human FcRn, FLAG-tagged)
B1 | no binding | 43.4 | –
B2 | no binding | 39.9 | –
B3 | no binding | 54.2 | 34.3
